# B1: soluble TAPBPR^WT: secreted His-tagged luminal domain of human TAPBPR, lacking transmembrane domain and cytoplasmic tail; SEQ ID NO: 2 (protein)
# chain: KPHPAEGQWRAVDVVLDCFLVKDGAHRGALASSEDRARASLVLKQVPVLDDGSLEDFTDFQGGTLAQDDPPIIFEASVDLVQIPQAEALLHADCSGKEVTCEISRYFLQMTETTVKTAAWFMANVQVSGGGPSISLVMKTPRVAKNEVLWHPTLNLPLSPQGTVRTAVEFQVMTQTQSLSFLLGSSASLDCGFSMAPGLDLISVEWRLQHKGRGQLVYSWTAGQGQAVRKGATLEPAQLGMARDASLTLPGLTIQDEGTYICQITTSLYRAQQIIQLNIQASPKVRLSLANEALLPTLICDIAGYYPLDVVVTWTREELGGSPAQVSGASFSSLRQSVAGTYSISSSLTAEPGSAGATYTCQVTHISLEEPLGASTQVVPPERR
# modifications: His tag; TAPBPR luminal domain (mature sequence without 21 aa leader sequence)
# Assays:
# [1] = target: T1, HLA-A*02:01 naturally expressed on MCF-7 (Homo sapiens, UniProt P04439, D140Y/D185E/D98H/E176V/E277Q/G131W/G231S/I119V/I121R/I166T/I218V/L300P/L318F/N151K/N90K/P208A/P217A/Q86G/Q94H/R138H/R169H/T345S); experiment: Fluorescent peptide loading onto MCF-7 cells by soluble TAPBPR; format: cell-based
# T1 construct: onto HLA-A*02:01 naturally expressed on MCF-7, a breast cancer cell line; endogenous in cells
# Experimental: (YLL) followed by staining with the TCR-like mAb L1 specific for […]/HLA-A2 complexes. (6d) The MFI of L1 binding to MCF-7 cells −/+SD from three independent experiments. (6e) Bar graphs show T cell activity measured by IFN-γ secretion in fluorospot assays of a HLA-A2 restricted […] specific CD8+ T cell line when incubated with MCF-7 target cells as treated in FIG. 6b with the exception that non-fluorescent […] peptide at 100 pM was used. […] Error bars−/+SD. Note: In FIGS. 6a, 6b, & 6e IFNγ treated cells were used.
# Target cell lines were seeded at 25,000-30,000 cells/well in 12-well plates and stimulated with IFN-γ. Following the stimulation period, the cells were washed 3 times with 1×PBS and incubated with 300 μL pre-warmed opti-MEM (Thermo Fisher Scientific, UK). In case the peptide binding was done in the presence of recombinant TAPBPR, the cells were then treated with or without recombinant TAPBPR (100 nM for HLA-A*68:02 or 1 μM for HLA-A*02:01). After 15 min, the desired TAMRA-labelled peptide was added to the cells and incubated at 37° C. (15 min for HLA-A*68:02 or 60 min for HLA-A*02:01). In case the peptide binding was facilitated by over-expressed TAPBPR, the labelled peptide was directly added to the cells, without using recombinant TAPBPR. […] The level of bound peptide/cell was determined by flow cytometry, using the YelFL1 channel (Cytek).
# EL4 cells = experiment: Binding of soluble human TAPBPR to EL4 cells (PeTe-4); parameters: species or system murine; conditions: 1 μM, 15 min, 37° C.
# [2] = tested on: surface MHC class I molecules (HLA-A*68:02) on HeLaM cells; experiment: Binding of exogenous soluble TAPBPR to cells (PeTe-4 staining); parameters: species or system human; conditions: cells lacking classical MHC class I expression
# Experimental: (§1) (g) Dose response curves of IFN-γ treated HeLaM and HeLaM-HLA-ABC^KO cells treated −/+100 nM TAPBPR with increasing concentrations of ETVSK*QSNV for 15 min at 37° C. Line graphs show MFI−/+s.e.m from three independent experiments. […] (h) Histograms of the typical fluorescent peptide binding observed using flow cytometry. (i) Bar graphs showing the MFI of fluorescent peptide binding to HeLaM HLA-ABC^KO+A2−/+s.e.m from two independent experiments with duplicates. ***P≤0.001, ****P≤0.0001, n/s not significant, using unpaired two-tailed t-test.
# (§2) Following trypsinisation, cells were washed in 1% bovine serum albumin (BSA), dissolved in 1×PBS at 4° C. and then stained for 30 min at 4° C. in 1% BSA containing one of the following antibodies: W6/32, pete4, pasta-1, anti-HLA-A68-reactive mAb, BB7.2 or with an isotype control antibody. After washing the cells to remove excess unbound antibody, the primary antibodies bound to the cells were detected by incubation at 4° C. for 25 min with either goat anti-mouse Alexa-Fluor 647 IgG (Invitrogen Molecular Probes, Thermo Fisher Scientific) or with Alexa-Fluor 647-conjugated streptavidin (Invitrogen Molecular Probes, Thermo Fisher […]
# [3] = target: T2, surface MHC class I molecules (HLA-A*68:02) on HeLaM cells (Homo sapiens, UniProt P04439, A269V/D140Y/D185E/E176V/E277Q/E87N/F33Y/G231S/I121R/I166T/I218V/L180W/L300P/L318F/N151K/P208A/P217A/Q86R/R138H/R169H/S129P/T345S/V36M); experiment: as above; conditions: 100 nM, 15 min, 37° C.
# T2 construct: HLA-A68 (MHC class I) expressed on HeLa; endogenous in cells; host or cells: HeLaM and derivatives (TAPBPR-KO with or without TAPBPR/tapasin constructs, +Her2, Her2-KO, +PDL1, pD-GFP); in some arms HeLaM-HLA-ABC-KO re-expressing HLA-A*68:02
# Experimental: as §1, §2
# surface MHC I molecules = target: T3, surface MHC I molecules (Homo sapiens, UniProt P04439, A269V/D140Y/D185E/E176V/E277Q/E87N/F33Y/G231S/I121R/I166T/I218V/L180W/L300P/L318F/N151K/P208A/P217A/Q86R/R138H/R169H/S129P/T345S/V36M); experiment: TAPBPR remaining on cell surface after peptide binding (PeTe4 staining); format: cell-based; conditions: 100 nM soluble TAPBPR^WT, then 10 nM peptide 15 min
# T3 construct: HLA-A68 (MHC class I) expressed on HeLa; endogenous in cells; host or cells: HeLaM and derivatives (TAPBPR-KO with or without TAPBPR/tapasin constructs, +Her2, Her2-KO, +PDL1, pD-GFP); in some arms HeLaM-HLA-ABC-KO re-expressing HLA-A*68:02
# Text: Subsequently, the amount of TAPBPR remaining on the cell surface was detected by staining with the TAPBPR specific mAb PeTe4.
# [4] = target: T4, HLA-A68 (MHC class I) expressed on HeLa (Homo sapiens, UniProt P04439, A269V/D140Y/D185E/E176V/E277Q/E87N/F33Y/G231S/I121R/I166T/I218V/L180W/L300P/L318F/N151K/P208A/P217A/Q86R/R138H/R169H/S129P/T345S/V36M); experiment: ETV* peptide loading on HeLaM and HeLaM-pD-GFP cells; format: cell-based; conditions: 1 nM recombinant protein
# T4 construct: HLA-A68 (MHC class I) expressed on HeLa; endogenous in cells; host or cells: HeLaM and derivatives (TAPBPR-KO with or without TAPBPR/tapasin constructs, +Her2, Her2-KO, +PDL1, pD-GFP); in some arms HeLaM-HLA-ABC-KO re-expressing HLA-A*68:02
molecule,measurement,setting,value
B1,"loading of fluorescent derivatives of tumour antigens IMDQVPFSV, […], LLGRNSFEV and RLLQETELV","[1]; 1 μM TAPBPR 15 min, 10 nM peptide 60 min",significantly enhanced the loading
same,association of YLLEK*LWRL and NLVPK*VATV onto HLA-A2,[1]; versus peptide alone or TAPBPR^TN5,enhanced the association
same,binding to EL4 cells,EL4 cells,bound to EL4 cells
same,binding of exogenous TAPBPR to HeLaM-HLA-ABC^KO cells,[2],could no longer bind
same,binding of exogenous TAPBPR to HeLaM cells,[3],clearly detectable on the cell surface
same,dissociation of TAPBPR from cells after peptide binding,surface MHC I molecules,dissociate from cells upon high affinity peptide binding
same,exogenous peptide loading onto antibody-target expressing cells at 1 nM protein,[4],no peptide loading
